For 1 substance, EC50 results are on record in patent US20250197493A1.

In assay [1] the target is cell membrane-expressed human LAG-3 (human) (UniProt P18627). The assay can be described thus: flow cytometry, SEB-activated human PBMCs, CD8 T cells, percent of cells bound (isotype control). On the technique in general: In flow cytometry, cells or beads pass a laser one at a time.
In assay [2] the target is cell membrane-expressed cynomolgus LAG-3 (cynomolgus monkey). Nature of the assay: flow cytometry, SEB-activated cynomolgus PBMCs, CD8 T cells, percent of cells bound (isotype control).
For assay [3] the target is unchanged. Nature of the assay: flow cytometry, SEB-activated cynomolgus PBMCs, CD4 T cells, percent of cells bound (isotype control).
For assay [4], the target named is cell membrane-expressed human LAG-3 (human) (UniProt P18627). Nature of the assay: flow cytometry, SEB-activated human PBMCs, CD4 T cells, percent of cells bound (isotype control).

Usually EC50 stands for the concentration giving half of the maximal effect. High values mean a need for much substance, low ones an effect from little substance.

Sequence of cell membrane-expressed human LAG-3 (human) (P18627 23-525 limits assumed): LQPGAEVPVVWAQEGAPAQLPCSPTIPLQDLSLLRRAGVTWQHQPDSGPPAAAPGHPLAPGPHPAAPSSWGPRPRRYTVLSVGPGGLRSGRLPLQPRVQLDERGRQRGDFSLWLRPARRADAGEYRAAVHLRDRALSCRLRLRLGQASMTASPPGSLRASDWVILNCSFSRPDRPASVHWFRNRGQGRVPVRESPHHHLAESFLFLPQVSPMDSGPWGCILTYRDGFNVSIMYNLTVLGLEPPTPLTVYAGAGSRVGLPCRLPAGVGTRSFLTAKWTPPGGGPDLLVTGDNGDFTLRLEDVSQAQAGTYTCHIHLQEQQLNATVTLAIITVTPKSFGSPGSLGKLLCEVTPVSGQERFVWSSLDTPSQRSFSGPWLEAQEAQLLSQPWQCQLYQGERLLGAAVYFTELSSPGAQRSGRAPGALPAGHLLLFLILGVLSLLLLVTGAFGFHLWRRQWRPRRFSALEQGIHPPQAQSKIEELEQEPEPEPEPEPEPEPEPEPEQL

Consider Isotype hG1 (antibody), for which the EC50 came out at 0.676 µg/mL in assay [1], 8.66 µg/mL in assay [2], 2450 µg/mL in assay [3] and 0.39 µg/mL in assay [4].
